Experimental data reported in the Human Domainome abundance scans (Beltran et al. 2025).

B1: Intersectin-1, residues 909 to 971; numbered along this chain, Q15811 (parent)
chain: QGEKVEGLQAQALYPWRAKKDNHLNFNKNDVITVLEQQDMWWFGEVQGQKGWFPKSYVKLISG

Variants of: B1
Test: abundance fitness (aPCA) (normalised: wild type 0, dead -1); higher = more abundant; growth selection in yeast, the domain comes from the species named
Details: Homo sapiens

Abundance fitness of substitutions, site by site:
D39: S -0.127, G -0.014, E -0.071, F -0.313, P -0.297, Q -0.328, M -0.221, N -0.215, C -0.262, H -0.454, L -0.385, Y -0.208, V -0.304, R -0.182, K -0.268, A -0.014, T -0.009, W -0.588
M40: I 0.034, S 0.013, R -0.127, W -0.475, L 0.008, T -0.115, K 0.144, V -0.164, A -0.083, G -0.109, F -0.233, P 0.025, Q 0.052, C 0.084, N 0.121, Y -0.344
T33: A -0.071, C -0.159, E -0.089, M -0.068, S -0.104, W -0.175, R -0.034, H -0.201, P -0.897, V -0.113, F -0.242, Y -0.016, L -0.158, K -0.1, N -0.233, D 0.086, G -0.196, I -0.213
Q47: C -0.332, D -0.546, E 0.017, A 0.009
D30: M -0.252, G -0.75, W -0.331, V -0.357, N -0.396, Q -0.036, R -0.778, Y -0.469, C -0.166, T -0.15, E -0.089, I -0.677, K -0.783, L -0.751, P -0.759, F -0.742, S -0.259, H -0.511
N25: S -0.074, L -0.28, V -0.207, P -0.451, W -0.462, M -0.087, K 0.115, R -0.177
L35: R -0.173, C 0.145, Q -0.058, K 0.168, E -0.243, M -0.019, S -0.114, G -0.033, T -0.327, V -0.34, F -0.284, W 0.111, A -0.612
G44: W -1, A -1.03, C -0.79, P -1.11, T -0.604, V -1.1, D -0.999
K28: Y -0.254, N -0.563, T 0.208, I -0.649, Q -0.197, D -0.145, H -0.253, L -0.462, A -0.264, C -0.172, E -0.173, M -0.208, P -0.584, V -0.256, G -0.203, R -0.232
F43: M -0.107, Y -0.119, P -0.808, C -0.563, K -0.202, E -0.465, G -0.596, S -0.546, T -0.811, D -0.997, V -0.923, N -0.427, R -0.328, H 0.168, I -0.663, A -0.696, L -0.019, W -0.061
N29: P -0.728, F -0.196, R -0.172, A -0.113, E -0.024, W -0.345, S -0.128, C -0.185, Q -0.041, Y -0.282, H 0.104, L -0.269, K -0.324, M -0.034, T -0.311, D -0.081, G -0.031
Q38: S -0.148, A -0.463, R 0.029, C -0.04, V -0.302, L -0.056, W -0.286, P -0.313, E 0.008, M -0.061, F -0.423, K -0.173, G 0.026
W42: Q -0.837, K -1.18, Y 0.031, V -0.411, L -0.088, D -0.429, M -0.192, R -0.767, I -0.605, S -0.667, A -0.244, F -0.057, T -0.527, P -0.658, C -0.055, G -0.734, E -0.814
N27: H -0.708, K -0.191, Q -0.143, A -0.114, V 0.157, E 0.054, R -0.016, S -0.408, G -0.185, M -0.037, T -0.307
Q37: K 0.149, T -0.052, E -0.159, P -0.289, G -0.085, N -0.279, R -0.06, S -0.294, C -0.127, F -0.078, H -0.274, I -0.286, V -0.588, W -0.162, M 0.323, A -0.036
E36: H -0.235, D -0.761, M -0.177, R -0.147, Q -0.344, A -0.026, V -0.044, L -0.094, G -0.076, Y -0.279, T -0.149, W -0.117, C -0.015, K 0.017
E45: A -0.245, N -0.356, C -0.117, T 0.073, K -0.222, R -0.034, W -0.274, S -0.039, Y 0.003, D -0.223, F -0.055, I -0.192, V -0.013, M -0.18, L -0.076, Q 0.067, G -0.263, H 0.089
I32: A -0.7, V -0.052, P -0.42, H -0.692, M -0.446, D -0.568, R -0.766, F -0.423, E -1.03, L -0.23, G -0.658, Q -1, W -0.869, T -0.97, K -0.965
V46: C 0.012, N -0.309, F -0.101, Y -0.287, T -0.155, W -0.09, E -0.584, S -0.001, G -0.193, A 0.015, H 0.035, Q -0.279, M -0.048, K -0.051, D -0.384, R -0.1, L 0.079, I -0.11
V31: S -0.224, H -0.117, R -0.03, F -0.022, D -0.484, I 0.011, C -0.08, P -0.325, A -0.274, W -0.132, G -0.476, Q -0.102, Y -0.058, L -0.022, M 0.003, K -0.006, E -0.185
W41: M -0.071, G -0.78, D -0.245, P -0.94, I -0.815, N -0.154, S -0.274, F -0.238, H -0.36, Q -0.316, V -0.319, T -0.659, A -0.489, K -0.427, L -0.252, E -0.59, Y -0.053, C -0.318, R -0.6
V34: P -0.646, R -0.776, I 0.221, C -0.427, W -0.524, E -0.549, M -0.772, Y -0.856, T -0.711, L -0.343, G -0.455, S -0.424
F26: Q -1, L -0.078, C -0.723, I -0.072, A -0.767, S -0.866, G -1.02, M 0.014, R -1.01, E -1.07, V -0.335
